Measured values: patent publication US20150284465A1 (Chugai, published 2015)

B1: F2H/L39-IgG1 (antibody, V domains shown)
VH: QVQLQESGPGLVKPSETLSLTCAVSGYSISDDHAWSWVRQPPGEGLEWIGYISYSGITNYNPSLQDRVTISRDNSKNTLYLQMNSLRAEDTAVYYCARLLARATAMDYWGQGILVTVSS
VL: DIQMTQSPSSLSASVGDSVTITCQASEDISSYLNWYQQKPGKAPELLIYYGSELESGVPSRFSGSGSGTDFTFTISSLEAEDAATYYCGQGNRLPYTFGQGTKVEIER
B2: RDC-23 (antibody, V domains shown)
VH: QVQLQESGPGLVRPSQTLSLTCTVSGYSITSDHAWSWVRQPPGRGLEWIGYISYSGITTYNPSLKSRVTMLRDTSKNQFSLRLSSVTAADTAVYYCARVLARITAMDYWGQGSLVTVSS
VL: DIQMTQSPSSLSASVGDRVTITCRASQDISSYLNWYQQKPGKAPKLLIYYTSRLHSGVPSRFSGSGSGTDFTFTISSLQPEDIATYYCGQGNRLPYTFGQGTKVEIK
notes: also called RDC-5H/RDC-11L

What was measured:
[1] = molecular target: T1, SR344 (N-terminal 1st to 344th amino acids of soluble human IL-6R) (human, UniProt P08887 20-344, limits assumed); assay: cell-based or functional assay
T1 sequence (looked up): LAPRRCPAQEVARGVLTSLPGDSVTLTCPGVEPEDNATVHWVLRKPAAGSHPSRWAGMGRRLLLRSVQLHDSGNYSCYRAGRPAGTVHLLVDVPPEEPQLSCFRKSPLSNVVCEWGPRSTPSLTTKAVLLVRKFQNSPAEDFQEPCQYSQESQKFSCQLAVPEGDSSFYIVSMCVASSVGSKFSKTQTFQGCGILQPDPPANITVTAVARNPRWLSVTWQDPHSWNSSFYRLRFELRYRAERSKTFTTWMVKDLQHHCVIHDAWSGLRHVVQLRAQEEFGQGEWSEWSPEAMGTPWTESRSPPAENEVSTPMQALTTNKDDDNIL

[2] = molecular target: T1, SR344 (N-terminal 1st to 344th amino …); assay: SPR (Biacore T100), Protein A/G capture, SR344 at 0, 0.36 and 1.4 µg/ml, 15 min dissociation, 37 C
[3] = molecular target: T1, SR344 (N-terminal 1st to 344th amino …); assay: SPR (Biacore T100), Protein A/G capture, SR344 as analyte, 37 C
[4] = molecular target: T2, recombinant human IL-6R sR (R&D systems) (human, UniProt P08887 20-358); assay: SPR (Biacore T100), antibody captured on Protein A, rhIL-6sR as analyte, 25 C
T2 construct: Bought soluble receptor; also called rhIL-6sR; rhIL-s6R
T2 sequence (looked up): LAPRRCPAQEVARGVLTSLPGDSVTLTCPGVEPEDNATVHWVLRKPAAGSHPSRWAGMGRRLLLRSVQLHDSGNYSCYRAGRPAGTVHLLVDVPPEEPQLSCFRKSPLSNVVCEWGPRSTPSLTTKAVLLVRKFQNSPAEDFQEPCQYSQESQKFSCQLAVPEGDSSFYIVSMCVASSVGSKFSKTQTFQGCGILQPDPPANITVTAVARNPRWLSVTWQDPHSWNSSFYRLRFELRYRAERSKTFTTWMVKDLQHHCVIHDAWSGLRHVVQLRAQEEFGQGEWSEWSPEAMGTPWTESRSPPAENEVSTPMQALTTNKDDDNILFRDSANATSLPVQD
Experimental: The antigen-antibody interaction was measured by immobilizing 4,400 to 5,000 RU of rec-Protein A (Zymed) immobilized onto a sensor chip by the amine coupling method, binding various antibodies onto the chip, and then flowing the antigen over the chip as an analyte. For the antigen, various concentrations of rhIL-6sR were used. All measurements were carried out at 25° C. The kinetic parameters, association rate constant kₐ (1/Ms) and dissociation rate constant kd (1/s) were calculated from the sensorgrams obtained by measurement. Then, KD (M) was determined based on the rate constants. The respective parameters were determined using Biacore T100 Evaluation Software (Biacore).

[5] = molecular target: T1, SR344 (N-terminal 1st to 344th amino …); assay: SPR (Biacore T100), antibody captured on Protein A/G, antigen as analyte, 37 C
Experimental: (§1) The antigen-antibody interaction was measured by immobilizing purified Recomb Protein A/G (Pierce) (hereinafter “Protein A/G”) onto a sensor chip, binding various antibodies onto the chip, and then flowing the antigen as an analyte over the chip. Various concentrations of rhIL-6sR (R&D systems) and recombinant soluble IL-6 receptor (SR344 prepared in Example 1) were used as the antigen. The sugar chain structure of rhIL-6sR produced by baculovirus-infected insect cells is of high-mannose type. On the other hand, the sugar chain structure of SR344 produced by CHO cells is assumed to be of the complex sugar chain type with sialic acid at its end. Since the sugar chain structure of soluble IL-6 receptor in an actual human body is assumed to be of the complex sugar chain type with sialic acid at its end, SR344 is expected to have a structure closer to that of soluble IL-6 receptor in the human body. Thus, a comparison test between rhIL-6sR and SR344 was carried out in this experiment.
(§2) A sensor chip was prepared by immobilizing about 3,000 RU of Protein A/G onto CM5 (Biacore) with the amine coupling method. […] The running buffer used was HBS-EP+, and the flow rate was 20 μl/min. Each antibody was prepared so that about 100 RU of the antibody was bound to Protein A/G. For the analyte, rhIL-6sR was prepared at 0, 0.156, 0.313, and 0.625 μg/ml using HBS-EP+, while SR344 was adjusted to 0, 0.0654, 0.131, and 0.261 μg/ml. […] After three minutes of interaction, the solution was switched with HBS-EP+ (Biacore), and the dissociation phase was monitored for ten minutes. After measurement of the dissociation phase, the sensor chip was regenerated by washing with 10 μl of 10 mM glycine-HCl (pH 1.5). The association, dissociation, and regeneration constituted one analytic cycle. All experiments were carried out at 37° C.

[6] = molecular target: T2, recombinant human IL-6R sR (R&D systems); assay: as above
Experimental: as §1, §2

[7] = molecular target: T1, SR344 (N-terminal 1st to 344th amino …); assay: SPR (Biacore T100), antibody captured on Protein A/G, SR344 as analyte, 37 C
Experimental: This measurement was carried out under the same conditions described in Example 2. The running buffer used was HBS-EP+, and the flow rate was 20 μl/min. Each antibody was prepared so that about 100 RU of the antibody was bound to Protein A/G. SR344 was prepared at 0, 0.065, 0.131, and 0.261 μg/ml using HBS-EP+ and used as an analyte. In the first step of the measurement, the antibody in solution was bound to Protein A/G, and the analyte solution was allowed to interact therewith. After three minutes of interaction, the solution was switched to HBS-EP+, and the dissociation phase was monitored for 10 or 15 minutes. After measurement of the dissociation phase, the sensor chip was regenerated by washing with 10 μl of 10 mM glycine-HCl (pH 1.5). The association, dissociation, and regeneration constitute one analysis cycle. Each antibody was measured according to this cycle.
The sensorgram was kinetically analyzed using the Biacore-specific data analysis software, Biacore T100 Evaluation Software.

[8] = molecular target: T1, SR344 (N-terminal 1st to 344th amino …); assay: SPR (Biacore T100), antibody captured on Protein A/G, antigen as analyte, 37 C; remark: listed apart in the source
Experimental: as §2
(§3) The obtained sensorgrams were kinetically analyzed using Biacore T100 Evaluation Software, which is a data analysis software specific for Biacore (Table 3). […] All measurements described hereinafter in the Examples were carried out at 37° C. to kinetically analyze the antigen-antibody reaction using SR344 and protein A/G.

[9] = molecular target: T2, recombinant human IL-6R sR (R&D systems); assay: as above; remark: listed apart in the source
Experimental: as §2, §3

Row | Binder | BaF3/gp130 neutralizing activity, 100% inhibitory concentration against WT [1] [fold] | Kd [2] [nM] | koff [2] [s⁻¹] | kon [2] [M⁻¹ s⁻¹] | ka relative to PF1-IgG1 [3] [fold] | Kd [4] [nM] | koff [4] [s⁻¹] | kon [4] [M⁻¹ s⁻¹] | Kd [5] [nM] | koff [5] [s⁻¹] | kon [5] [M⁻¹ s⁻¹] | Kd [6] [nM] | koff [6] [s⁻¹] | kon [6] [M⁻¹ s⁻¹] | Kd [7] [nM] | koff [7] [s⁻¹] | kon [7] [M⁻¹ s⁻¹] | fold improved affinity against WT [8] [fold] | fold improved affinity against WT [9] [fold]
1 | B1 | ≥ 100 | 0.052 | 4e-05 | 770000 | ~0.5 | – | – | – | – | – | – | – | – | – | – | – | – | – | –
2 | B2 | ~100 | – | – | – | – | 0.025 | 3.1e-05 | 1.2e+06 | 0.067 | 4.3e-05 | 640000 | 0.028 | 4.5e-05 | 1.6e+06 | 0.067 | 4.3e-05 | 640000 | 40 to 60 | 40 to 60
